The source of these data is patent US20250289894A1 (MORPHIC THERAPEUTIC, published 2025).

Positions count from the first letter of the chain named. Like-named read-outs stand apart in the source and are kept apart here.

Experiment [1] has as its target Human α7β1 (human) (UniProt Q13683). Kind of experiment: cell-based or functional assay.
Experiment [2] has the same target. Kind of experiment: cell-based or functional assay. This is another data set of the same source.
The target in experiment [3] is Human α7β1 (human), Q13683. Kind of experiment: cell-based or functional assay.
For experiment [4], the target named is T1, Human a7 Genu Calf 1-2 (human, UniProt Q13683 679-1078, limits assumed).
T1 construct: domain: Genu Calf 1-2
T1 sequence (looked up): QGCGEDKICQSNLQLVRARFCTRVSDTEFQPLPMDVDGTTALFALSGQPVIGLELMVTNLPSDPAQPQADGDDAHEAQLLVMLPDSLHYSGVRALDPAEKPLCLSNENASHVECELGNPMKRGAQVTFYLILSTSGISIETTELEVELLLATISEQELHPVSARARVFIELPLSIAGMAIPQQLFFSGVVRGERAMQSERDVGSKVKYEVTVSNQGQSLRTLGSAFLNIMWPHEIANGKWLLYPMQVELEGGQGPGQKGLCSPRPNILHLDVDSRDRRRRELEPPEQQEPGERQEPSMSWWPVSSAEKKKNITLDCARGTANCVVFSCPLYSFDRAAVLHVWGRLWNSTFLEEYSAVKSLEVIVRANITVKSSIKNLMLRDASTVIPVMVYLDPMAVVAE
Kind of experiment: SPR. Background: Surface plasmon resonance follows binding to a sensor surface in real time, without labels.

Regarding Isotype Control (antibody), in experiment [1], the EC50 (nM), ECIS, DMD-1 myoblast cells (control row) was 38.1 nM; the EC50 (nM), ECIS, DMD-2 myoblast cells (control row) came to 8.7 nM; the EC50 (nM), ECIS, Non-DMD myoblast cells (control row) came out at 8.1 nM; the Emax (% of RefAb1), ECIS, DMD-1 myoblast cells (control row) was 59 % of RefAb1. Further, in experiment [1], the Emax (% of RefAb1), ECIS, DMD-2 myoblast cells (control row) was 39 % of RefAb1 and the Emax (% of RefAb1), ECIS, Non-DMD myoblast cells (control row) was 35 % of RefAb1.
Take TS2/16 antibody: in experiment [2], the EC50 (nm), a7b1 activation assay turned out to be 1.97 nM; the EC50 (ug/mL), a7b1 activation assay came out at 0.3 µg/mL; the Emax (F.C.), a7b1 activation assay is 2.09 F.C. In experiment [1], this molecule displayed an EC50 (nM), a7b1 activation assay of 2.07 nM; an EC50 (ug/mL), a7b1 activation assay of 0.31 µg/mL; an Emax (% TS2/16), a7b1 activation assay of 100 % TS2/16; an Emax (F.C.), a7b1 activation assay of 2.34 F.C.

B1: Ab24/Ab25 (antibody, V domains shown)
VH: EVQLVQSGAEVKKPGSSVKVSCKASGYSFTRYWMHWVRQAPGQGLEWIGKIDPSDSETRLNQEFRDRATLTVDKSTSTAYMELSSLRSEDTAVYYCARGGYFGREWYYDVWGQGTLVTVSS
VL: DIVMTQSPLSLPVTPGEPASISCRSSQSLVHRNGNTYLHWYLQKPGQSPQLLIYEVSNRAAGVPDRFSGSGSGTDFTLKISRVEAEDVGVYFCSQSTHVPWTFGGGTKLEIK
In experiment [3], B1 gave an EC50 (nM), a7b1 activation assay of 1.86 nM; an EC50 (ug/mL), a7b1 activation assay of 0.28 µg/mL; an Emax (% TS2/16), a7b1 activation assay of 97.9 % TS2/16; an Emax (F.C.), a7b1 activation assay (9EG7 staining, human iPSC cardiomyocytes) of 2.29 F.C.

B2: Ab32 (antibody, human IgG1, V domains shown)
VH: B1 VH with R104E, E105Q, Y108H
VL: B1 VL with A61S
In general, Kd refers to the concentration at which binding is half-saturated. The molecule B2 came in with a Kd in experiment [4] of 1.53 nM.

B3: Ab26/Ab27 (antibody, V domains shown)
VH: B1 VH with R104E, Y108H
VL: B1 VL with A60F, A61T, S94A, H98Q, V99L, W101Y
In experiment [3], B3 gave an EC50 (nm), a7b1 activation assay of 2.88 nM; an EC50 (ug/mL), a7b1 activation assay of 0.43 µg/mL; an Emax (% TS2/16), a7b1 activation assay of 86.3 % TS2/16; an Emax (F.C.), a7b1 activation assay of 1.8 F.C.

B4: Ab37 (antibody, human IgG1, V domains shown)
VH: B1 VH with R104E, E105K, Y108H
VL: B1 VL with E55G, A60F, S94A, H98Q, V99L, W101Y
For the molecule B4, in experiment [4], the Kd worked out at 1.43 nM.

B5: Ab36 (antibody, human IgG1, V domains shown)
VH: B1 VH with R104E, E105K, Y108H
VL: B1 VL with N58H, A60F, A61P, S94A, H98Q, V99L, W101Y
B5: binding in experiment [4] was put at a Kd of 1.33 nM.

B6: Ab34 (antibody, human IgG1, V domains shown)
VH: B1 VH with R104E, E105T, Y108H
VL: B1 VL with N58H, A61S
In experiment [4], B6 returned a Kd of 1.35 nM.

B7: Ab38 (antibody, human IgG1, V domains shown)
VH: B1 VH with R104E, Y108N
VL: B1 VL with E55K, A61S
In experiment [4], B7 returned a Kd of 4.44 nM. Compared with the last molecule, the Kd is about 3.3-fold higher.

B8: Ab33 (antibody, human IgG1, V domains shown)
VH: B1 VH with R104V, E105G, Y108N
VL: B1 VL with A60V, A61P
Molecule B8 registered a Kd in experiment [4] of 2.88 nM.

B9: Ab40 (antibody, human IgG1, V domains shown)
VH: B1 VH with R104E, Y108H
VL: B1 VL with V56G, N58K, A60F, A61S
The molecule B9 had a Kd in experiment [4] of 0.94 nM.

B10: Ab31 (antibody, human IgG1, V domains shown)
VH: B1 VH with E105Q, Y108F
VL: B1 VL with A61S
In experiment [4], B10 came in with a Kd of 2.53 nM.

B11: Ab39 (antibody, human IgG1, V domains shown)
VH: B1 VH with R104E, Y108H
VL: B1 VL with E55K, A61S
Turning to B11, the Kd in experiment [4] worked out at 1.57 nM.

B12: Ab42 (antibody, human IgG1, V domains shown)
VH: B1 VH with E105Q, Y108F
VL: B1 VL with V56G, N58K, A60F, A61S, S94A, H98Q, V99L, W101Y
In experiment [4], B12 returned a Kd of 5.7 nM.
